In the data set the target is T1, rDHX36 (G4R1/RHAU) (UniProt Q9H2U1 1-1008).
T1 sequence: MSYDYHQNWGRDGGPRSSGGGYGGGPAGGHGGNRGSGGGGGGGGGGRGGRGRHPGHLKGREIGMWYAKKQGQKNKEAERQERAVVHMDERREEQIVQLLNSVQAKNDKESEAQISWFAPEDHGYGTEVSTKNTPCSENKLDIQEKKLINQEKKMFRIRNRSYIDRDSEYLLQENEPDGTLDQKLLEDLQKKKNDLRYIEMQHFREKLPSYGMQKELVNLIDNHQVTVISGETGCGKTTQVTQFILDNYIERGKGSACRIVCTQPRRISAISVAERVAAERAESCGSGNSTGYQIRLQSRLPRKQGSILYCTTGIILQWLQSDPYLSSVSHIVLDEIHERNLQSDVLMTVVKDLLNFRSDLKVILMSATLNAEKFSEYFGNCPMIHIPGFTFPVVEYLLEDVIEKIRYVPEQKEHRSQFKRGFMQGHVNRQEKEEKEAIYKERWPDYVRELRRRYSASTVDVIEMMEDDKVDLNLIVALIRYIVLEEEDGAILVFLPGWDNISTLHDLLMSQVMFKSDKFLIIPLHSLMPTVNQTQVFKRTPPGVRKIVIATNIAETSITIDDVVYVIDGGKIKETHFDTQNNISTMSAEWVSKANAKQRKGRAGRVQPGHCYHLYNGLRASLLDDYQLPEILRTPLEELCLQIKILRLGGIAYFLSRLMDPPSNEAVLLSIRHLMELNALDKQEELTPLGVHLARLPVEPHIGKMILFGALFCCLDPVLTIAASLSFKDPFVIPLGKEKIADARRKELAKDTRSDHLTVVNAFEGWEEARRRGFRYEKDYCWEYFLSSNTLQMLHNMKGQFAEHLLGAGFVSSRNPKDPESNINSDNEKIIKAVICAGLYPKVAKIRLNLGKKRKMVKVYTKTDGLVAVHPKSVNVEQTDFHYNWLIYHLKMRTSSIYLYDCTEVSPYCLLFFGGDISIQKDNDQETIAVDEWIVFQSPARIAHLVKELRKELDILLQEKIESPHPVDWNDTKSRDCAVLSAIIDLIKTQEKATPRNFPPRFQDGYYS
Briefly: EMSA. On the technique in general: Mobility shift assays separate free from complexed probe on a gel.

From PMC8326427 come the findings set out here.

On to GGGGCCGGGGCCGGGGCCGGGGCCGGGGCCGTTAGAATTTTT (structured_DNA) [(G4C2)5-DNA, annealed with KCl (G4)], for which the binding result was “binds”.
